From article PMC5415871 (Biochemistry, 2017)

Tests used:
[1] = target: type 2β regulatory subunit of PKA (RIIβ), full length (rat, UniProt P12369 1-416); assay: fluorescence polarisation
[2] = target: type 2α regulatory subunit of PKA (RIIα), full length (rat, UniProt P12368 1-401); assay: fluorescence polarisation
Chain of type 2α regulatory subunit of PKA (RIIα), full length (P12368 whole entry): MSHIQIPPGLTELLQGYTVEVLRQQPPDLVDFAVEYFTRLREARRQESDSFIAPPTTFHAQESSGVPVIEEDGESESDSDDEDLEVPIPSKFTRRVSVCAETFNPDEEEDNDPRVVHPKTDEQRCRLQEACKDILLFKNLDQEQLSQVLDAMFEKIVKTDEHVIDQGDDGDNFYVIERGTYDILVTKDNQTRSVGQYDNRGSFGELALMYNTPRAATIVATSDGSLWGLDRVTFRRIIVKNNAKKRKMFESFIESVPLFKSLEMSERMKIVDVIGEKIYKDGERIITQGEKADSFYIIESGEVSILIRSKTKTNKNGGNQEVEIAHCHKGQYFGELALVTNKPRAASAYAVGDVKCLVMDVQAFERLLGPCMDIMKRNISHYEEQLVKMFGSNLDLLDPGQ

Chain of type 2β regulatory subunit of PKA (RIIβ), full length (P12369 whole entry): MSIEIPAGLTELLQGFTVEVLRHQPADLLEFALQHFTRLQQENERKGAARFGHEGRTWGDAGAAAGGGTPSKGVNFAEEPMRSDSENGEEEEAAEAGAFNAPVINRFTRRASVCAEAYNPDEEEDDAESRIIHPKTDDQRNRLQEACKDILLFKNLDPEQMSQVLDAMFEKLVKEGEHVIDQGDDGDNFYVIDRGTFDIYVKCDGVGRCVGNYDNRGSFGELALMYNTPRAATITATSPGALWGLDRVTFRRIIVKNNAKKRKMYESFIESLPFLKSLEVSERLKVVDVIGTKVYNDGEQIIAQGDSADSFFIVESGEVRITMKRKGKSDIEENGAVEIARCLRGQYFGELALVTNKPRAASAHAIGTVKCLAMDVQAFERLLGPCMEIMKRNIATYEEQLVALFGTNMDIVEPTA

Kd [1]: 2.16 µM
Kd [2]: 0.99 µM
B1: S100A1 (natural protein)
chain: GSELETAMETLINVFHAHSGKEGDKYKLSKKELKELLQTELSGFLDAQKDVDAVDKVMKELDENGDGEVDFQEYVVLVAALTVACNNFFWENS
